Source: article PMC3823977, “Protein Interaction Analysis of Senataxin and the ALS4 L389S Mutant Yields Insights into Senataxin Post-Translational Modification and Uncovers Mutant-Specific Binding with a Brain Cytoplasmic RNA-Encoded Peptide” (PLoS ONE, 2013)

Biological target: the molecule itself
Assay: SEC; size-exclusion chromatography of recombinant senataxin (1–600) after cleavage from GST

B1: recombinant amino-terminal senataxin (1–600), GST cleaved (domain or fragment, human, UniProt Q7Z333-1 1-600, looked up)
chain: MSTCCWCTPGGASTIDFLKRYASNTPSGEFQTADEDLCYCLECVAEYHKARDELPFLHEVLWELETLRLINHFEKSMKAEIGDDDELYIVDNNGEMPLFDITGQDFENKLRVPLLEILKYPYLLLHERVNELCVEALCRMEQANCSFQVFDKHPGIYLFLVHPNEMVRRWAILTARNLGKVDRDDYYDLQEVLLCLFKVIELGLLESPDIYTSSVLEKGKLILLPSHMYDTTNYKSYWLGICMLLTILEEQAMDSLLLGSDKQNDFMQSILHTMEREADDDSVDPFWPALHCFMVILDRLGSKVWGQLMDPIVAFQTIINNASYNREIRHIRNSSVRTKLEPESYLDDMVTCSQIVYNYNPEKTKKDSGWRTAICPDYCPNMYEEMETLASVLQSDIGQDMRVHNSTFLWFIPFVQSLMDLKDLGVAYIAQVVNHLYSEVKEVLNQTDAVCDKVTEFFLLILVSVIELHRNKKCLHLLWVSSQQWVEAVVKCAKLPTTAFTRSSEKSSGNCSKGTAMISSLSLHSMPSNSVQLAYVQLIRSLLKEGYQLGQQSLCKRFWDKLNLFLRGNLSLGWQLTSQETHELQSCLKQIIRNIKFKAP
notes: vector pGEX-4T-2; also called purified senataxin peptide; source: E. coli, GST-tagged, purified after in vitro cleavage
- stoichiometry N: 2
